Experimental data reported in paper PMC4721547, “Cyclophilin40 isomerase activity is regulated by a temperature-dependent allosteric interaction with Hsp90” (Bioscience Reports, 2015).

Tests used:
[1] = target: Cyclophilin 40 (human; pDEST14-6H-TEV-hCyp40) (human) (UniProt Q08752)
[2] = target: T1, Cyclophilin 40 (human; pDEST14-6H-TEV-hCyp40) (human, UniProt Q08752 1-370); experiment: ITC; 500 uM SRMEEVD titrated into 7.7 uM Cyp40 in 15 x 2.5 ul aliquots; 50 mM Hepes pH 8, 100 mM sodium chloride, 1 mM DTT; 1:1 binding model; 30 °C (highest attainable temperature); conditions: both partners purified
T1 construct: Cyclophilin 40 (Cyp40, PPID), human; construct pDEST14-6H-TEV-hCyp40; Monomeric by dynamic light scattering; also called PPID; source: E. coli BL21 star (DE3), purified (IMAC, gel filtration on Superdex 200)
T1 sequence (Q08752 whole entry): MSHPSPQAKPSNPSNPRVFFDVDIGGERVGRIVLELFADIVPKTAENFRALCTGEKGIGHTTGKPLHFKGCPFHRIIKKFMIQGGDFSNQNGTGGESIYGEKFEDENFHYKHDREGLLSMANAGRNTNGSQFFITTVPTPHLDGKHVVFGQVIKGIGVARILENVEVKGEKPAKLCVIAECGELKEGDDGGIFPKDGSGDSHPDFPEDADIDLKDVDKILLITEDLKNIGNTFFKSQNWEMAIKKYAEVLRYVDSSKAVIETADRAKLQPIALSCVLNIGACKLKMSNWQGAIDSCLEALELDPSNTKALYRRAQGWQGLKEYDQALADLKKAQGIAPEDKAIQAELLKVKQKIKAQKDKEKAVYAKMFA

[3] = target: T1, Cyclophilin 40 (human; …); experiment: ITC; 500 uM SRMEEVD titrated into 7.7 uM Cyp40 in 15 x 2.5 ul aliquots; 50 mM Hepes pH 8, 100 mM sodium chloride, 1 mM DTT; 1:1 binding model; 10 °C; conditions: both partners purified
[4] = target: T1, Cyclophilin 40 (human; …); experiment: ITC; 500 uM SRMEEVD titrated into 7.7 uM Cyp40 in 15 x 2.5 ul aliquots; 50 mM Hepes pH 8, 100 mM sodium chloride, 1 mM DTT; 1:1 binding model; 20 °C (value told with Supplementary Figure S2); conditions: both partners purified

Cyclophilin 40 (human; pDEST14-6H-TEV-hCyp40) (human), sequence (Q08752 whole entry): as above

Row | reduction of the PPIase activity of Cyp40 (10 nM) by 250 uM peptide, substrate Suc-A-A-P-F-p-NA, 10 °C [1] [%] | Kd [2] [µM] | Kd [3] [µM] | Kd [4] [µM] | Binder
1 | > 30 | – | – | – | GAAAEEVD [GAAAEEVD peptide (Hsp70 mutant C-terminal peptide)]
2 | > 30 | – | – | – | GPTIEEVD [GPTIEEVD peptide (Hsp70 wild-type C-terminal peptide)]
3 | – | ~25 | ~5 | 10.7 | SRMEEVD (also called Hsp90 peptide; Hsp90 wt) [SRMEEVD peptide (Hsp90 wild-type C-terminal peptide)]
